The values below come from doi:10.1101/461806 (bioRxiv, 2018).

Data set [1] deals with T1, Cul3NΔ22 (human Cul3 N-terminal domain, residues 23-388, I342R L346D) (human, UniProt Q13618 23-388, I342R | L346D). In words: ITC.
The target in data set [2] is Cul3N (human Cul3 N-terminal domain, residues 1-388, I342R L346D) (human, UniProt Q13618 1-388, I342R | L346D). The experiment in a line: ITC. On the technique in general: ITC needs no label: the signal is the heat of the interaction.
The data set “SEC-MALS” concerns the molecule itself. In words: SEC-MALS. A general note: SEC sorts molecules by how far they enter the pores of the column.
For data set [3], the target named is T1, Cul3NΔ22 (human Cul3 N-terminal domain, …). In words: SEC-MALS.

T1 sequence (Q13618 23-388 I342R/L346D): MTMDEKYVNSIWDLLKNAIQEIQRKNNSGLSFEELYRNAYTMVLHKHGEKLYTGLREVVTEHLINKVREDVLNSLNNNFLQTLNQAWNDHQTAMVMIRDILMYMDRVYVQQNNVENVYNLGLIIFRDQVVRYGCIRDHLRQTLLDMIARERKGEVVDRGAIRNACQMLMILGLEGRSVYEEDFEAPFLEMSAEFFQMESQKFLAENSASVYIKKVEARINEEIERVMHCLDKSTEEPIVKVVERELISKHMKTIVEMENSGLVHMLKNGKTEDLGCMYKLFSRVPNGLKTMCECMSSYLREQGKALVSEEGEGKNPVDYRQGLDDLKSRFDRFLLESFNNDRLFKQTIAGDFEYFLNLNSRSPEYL
Cul3N (human Cul3 N-terminal domain, residues 1-388, I342R L346D), sequence (Q13618 1-388 I342R/L346D): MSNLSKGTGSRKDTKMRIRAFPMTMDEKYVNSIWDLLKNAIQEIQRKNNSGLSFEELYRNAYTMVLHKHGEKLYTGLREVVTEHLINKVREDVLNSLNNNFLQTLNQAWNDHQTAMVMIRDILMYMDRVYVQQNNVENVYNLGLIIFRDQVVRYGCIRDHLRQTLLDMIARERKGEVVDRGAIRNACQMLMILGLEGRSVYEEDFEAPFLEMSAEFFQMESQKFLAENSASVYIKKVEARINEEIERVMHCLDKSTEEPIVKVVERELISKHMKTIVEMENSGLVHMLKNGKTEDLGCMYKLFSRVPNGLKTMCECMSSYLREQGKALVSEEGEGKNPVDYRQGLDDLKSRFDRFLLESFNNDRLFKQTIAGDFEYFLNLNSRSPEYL

B1: A55BB (A55 BTB-BACK domain, residues 1-250) (domain or fragment)
chain: MNNSSELIAVINGFRNSGRFCDISIVINDERINAHKLILSGASEYFSILFSNNFIDSNEYEVNLSHLDYQSVNDLIDYIYGIPLSLTNDNVKYILSTADFLQIGSAITECENYILKNLCSKNCIDFYIYADKYNNKKIESASFNTILQNILRLINDENFKYLTEESMIKILSDDMLNIKNEDFAPLILIKWLESTQQSCTVELLRCLRISLLSPQVIKSLYSHQLVSSIYECITFLNNIAFLDESFPRYH
In the case of B1, the results for the Kd in data set [1] and in data set [2] were 3 nM and less than 1 nM, respectively. In data set [1], this molecule returned a dH of -10.2 kcal/mol. Further, the stoichiometry N (commonly the number of molecules, sites or subunits per partner or assembly) in data set [1] was 1; in data set [2], 1; in the data set “SEC-MALS” it was 2; in data set [3] it was 1 A55BB per Cul3NΔ22 (2:2 complex).

B2: KLHL3-BB (human KLHL3 BTB-BACK, residues 24-276) (domain or fragment)
chain: RTITVNPAHMGKAFKVMNELRSKQLLCDVMIVAEDVEIEAHRVVLAACSPYFCAMFTGDMSESKAKKIEIKDVDGQTLSKLIDYIYTAEIEVTEENVQVLLPAASLLQLMDVRQNCCDFLQSQLHPTNCLGIRAFADVHTCTDLLQQANAYAEQHFPEVMLGEEFLSLSLDQVCSLISSDKLTVSSEEKVFEAVISWINYEKETRLEHMAKLMEHVRLPLLPRDYLVQTVEEEALIKNNNTCKDFLIEAMKYH
Molecule B2 showed a dH in data set [1] of -18.9 kcal/mol.
